Results taken from IntAct's records for PubMed 23622242.

B1: Double-stranded RNA-specific adenosine deaminase (Homo sapiens), P55265-1 (parent)
chain: MNPRQGYSLSGYYTHPFQGYEHRQLRYQQPGPGSSPSSFLLKQIEFLKGQLPEAPVIGKQTPSLPPSLPGLRPRFPVLLASSTRGRQVDIRGVPRGVHLRSQGLQRGFQHPSPRGRSLPQRGVDCLSSHFQELSIYQDQEQRILKFLEELGEGKATTAHDLSGKLGTPKKEINRVLYSLAKKGKLQKEAGTPPLWKIAVSTQAWNQHSGVVRPDGHSQGAPNSDPSLEPEDRNSTSVSEDLLEPFIAVSAQAWNQHSGVVRPDSHSQGSPNSDPGLEPEDSNSTSALEDPLEFLDMAEIKEKICDYLFNVSDSSALNLAKNIGLTKARDINAVLIDMERQGDVYRQGTTPPIWHLTDKKRERMQIKRNTNSVPETAPAAIPETKRNAEFLTCNIPTSNASNNMVTTEKVENGQEPVIKLENRQEARPEPARLKPPVHYNGPSKAGYVDFENGQWATDDIPDDLNSIRAAPGEFRAIMEMPSFYSHGLPRCSPYKKLTECQLKNPISGLLEYAQFASQTCEFNMIEQSGPPHEPRFKFQVVINGREFPPAEAGSKKVAKQDAAMKAMTILLEEAKAKDSGKSEESSHYSTEKESEKTAESQTPTPSATSFFSGKSPVTTLLECMHKLGNSCEFRLLSKEGPAHEPKFQYCVAVGAQTFPSVSAPSKKVAKQMAAEEAMKALHGEATNSMASDNQPEGMISESLDNLESMMPNKVRKIGELVRYLNTNPVGGLLEYARSHGFAAEFKLVDQSGPPHEPKFVYQAKVGGRWFPAVCAHSKKQGKQEAADAALRVLIGENEKAERMGFTEVTPVTGASLRRTMLLLSRSPEAQPKTLPLTGSTFHDQIAMLSHRCFNTLTNSFQPSLLGRKILAAIIMKKDSEDMGVVVSLGTGNRCVKGDSLSLKGETVNDCHAEIISRRGFIRFLYSELMKYNSQTAKDSIFEPAKGGEKLQIKKTVSFHLYISTAPCGDGALFDKSCSDRAMESTESRHYPVFENPKQGKLRTKVENGEGTIPVESSDIVPTWDGIRLGERLRTMSCSDKILRWNVLGLQGALLTHFLQPIYLKSVTLGYLFSQGHLTRAICCRVTRDGSAFEDGLRHPFIVNHPKVGRVSIYDSKRQSGKTKETSVNWCLADGYDLEILDGTRGTVDGPRNELSRVSKKNIFLLFKKLCSFRYRRDLLRLSYGEAKKAARDYETAKNYFKKGLKDMGYGNWISKPQEEKNFYLCPV
partner: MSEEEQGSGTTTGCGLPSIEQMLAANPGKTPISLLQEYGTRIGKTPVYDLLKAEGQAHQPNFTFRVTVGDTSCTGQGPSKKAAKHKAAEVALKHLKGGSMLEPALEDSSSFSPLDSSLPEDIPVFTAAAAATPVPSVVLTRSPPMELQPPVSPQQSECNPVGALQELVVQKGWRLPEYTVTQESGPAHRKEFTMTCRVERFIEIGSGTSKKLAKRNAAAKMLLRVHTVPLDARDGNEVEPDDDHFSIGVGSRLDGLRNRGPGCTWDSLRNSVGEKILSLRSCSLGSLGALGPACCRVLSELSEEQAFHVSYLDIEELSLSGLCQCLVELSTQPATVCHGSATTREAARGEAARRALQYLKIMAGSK

Variants of: B1
Conditions: with trbp2_human TARBP2, Q15633

effect of a mutation on the interaction | Variant
disrupting interaction strength | K554E;K555A;K558A;K665E;K666A;K669A;K777E;K778A;K781A
